Paper PMC6412583

Experiments:
[1] = target: GmZPR3d (soybean (Glycine max)); assay: two-hybrid; quantitative β-gal assay of mated yeast cells with ONPG as substrate, Miller's units from OD420, in triplicate; product in test samples almost 20 h after substrate addition
[2] = target: T (control protein of the yeast two-hybrid kit, pGBKT7-T as printed); assay: as above

Substance: GmHD-ZIP III-2 (natural protein)
- fold β-Gal activity against GmHD-ZIP III-2::ZPR3b and GmHD-ZIP III-2::ZPR3c [1]: 7 fold

Substance: 53 (positive control protein of the yeast two-hybrid kit, pGADT7-53 as printed) (domain or fragment)
- fold β-Gal activity against any of the experimental pairs [2]: 14 fold
